“And” between values parts separate entries of the source, which are not always exact repeats. Equal entries are not always repeated.
What was measured:
[1] = biological target: refolded PD-1 protein (L25-R147) expressed in E. coli (Homo sapiens, UniProt Q15116); test: SPR
[2] = biological target: human PD-1 on 293T cells stably transfected with human PD-1 (human, UniProt Q15116); test: flow cytometry on cells
[3] = biological target: recombinant human PD-1 extracellular domain (ECD) fusion protein (human, UniProt Q15116); test: ELISA
Sequence of recombinant human PD-1 extracellular domain (ECD) fusion protein (Q15116 25-170): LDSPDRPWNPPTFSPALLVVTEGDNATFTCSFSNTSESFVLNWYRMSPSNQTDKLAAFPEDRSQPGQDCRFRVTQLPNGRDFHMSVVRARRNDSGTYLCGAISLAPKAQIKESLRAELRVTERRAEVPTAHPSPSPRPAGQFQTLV

Sequence of human PD-1 on 293T cells stably transfected with human PD-1 (Q15116 25-288): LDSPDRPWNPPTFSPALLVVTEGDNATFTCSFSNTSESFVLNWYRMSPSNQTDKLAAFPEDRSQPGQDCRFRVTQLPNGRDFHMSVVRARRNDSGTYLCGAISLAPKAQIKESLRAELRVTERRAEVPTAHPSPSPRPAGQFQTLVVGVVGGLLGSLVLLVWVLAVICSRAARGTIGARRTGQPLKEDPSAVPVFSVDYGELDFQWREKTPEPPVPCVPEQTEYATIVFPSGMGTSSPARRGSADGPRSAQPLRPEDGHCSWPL
Sequence of refolded PD-1 protein (L25-R147) expressed in E. coli (Q15116 25-147): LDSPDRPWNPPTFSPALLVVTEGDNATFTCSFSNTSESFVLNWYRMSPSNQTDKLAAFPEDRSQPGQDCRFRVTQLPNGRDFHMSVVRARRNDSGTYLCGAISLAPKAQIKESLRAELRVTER

B1: toripalimab (antibody, V domains shown)
VH: QGQLVQSGAEVKKPGASVKVSCKASGYTFTDYEMHWVRQAPIHGLEWIGVIESETGGTAYNQKFKGRVTITADKSTSTAYMELSSLRSEDTAVYYCAREGITTVATTYYWYFDVWGQGTTVTVSS
VL: DVVMTQSPLSLPVTLGQPASISCRSSQSIVHSNGNTYLEWYLQKPGQSPQLLIYKVSNRFSGVPDRFSGSGSGTDFTLKISRVEAEDVGVYYCFQGSHVPLTFGQGTKLEIK
**Q.** B1 was tested. Which Kd [1] did it give?
**A.** 0.324 nM

**Q.** And the IC50 [2]?
**A.** 1.3 nM and 3.7 nM

**Q.** What about the IC50 [3] of the same binder?
**A.** 0.8 nM and 1.3 nM
